Data as given in US20020127673A1 (REGENTS OF THE UNIVERSITY OF MICHIGAN, published 2002).

B1: TRAF-6 (other, UniProt Q9Y4K3 1-522, looked up)
chain: MSLLNCENSCGSSQSESDCCVAMASSCSAVTKDDSVGGTASTGNLSSSFMEEIQGYDVEFDPPLESKYECPICLMALREAVQTPCGHRFCKACIIKSIRDAGHKCPVDNEILLENQLFPDNFAKREILSLMVKCPNEGCLHKMELRHLEDHQAHCEFALMDCPQCQRPFQKFHINIHILKDCPRRQVSCDNCAASMAFEDKEIHDQNCPLANVICEYCNTILIREQMPNHYDLDCPTAPIPCTFSTFGCHEKMQRNHLARHLQENTQSHMRMLAQAVHSLSVIPDSGYISEVRNFQETIHQLEGRLVRQDHQIRELTAKMETQSMYVSELKRTIRTLEDKVAEIEAQQCNGIYIWKIGNFGMHLKCQEEEKPVVIHSPGFYTGKPGYKLCMRLHLQLPTAQRCANYISLFVHTMQGEYDSHLPWPFQGTIRLTILDQSEAPVRQNHEEIMDAKPELLAFQRPTIPRNPKGFGYVTFMHLEALRQRTFIKDDTLLVRCEVSTRFDMGSLRREGFQPRSTDAGV
notes: Construct and tag not described
B2: TRADD (other, UniProt Q15628 1-312, looked up)
chain: MAAGQNGHEEWVGSAYLFVESSLDKVVLSDAYAHPQQKVAVYRALQAALAESGGSPDVLQMLKIHRSDPQLIVQLRFCGRQPCGRFLRAYREGALRAALQRSLAAALAQHSVPLQLELRAGAERLDALLADEERCLSCILAQQPDRLRDEELAELEDALRNLKCGSGARGGDGEVASAPLQPPVPSLSEVKPPPPPPPAQTFLFQGQPVVNRPLSLKDQQTFARSVGLKWRKVGRSLQRGCRALRDPALDSLAYEYEREGLYEQAFQLLRRFVQAEGRRATLQRLVEALEENELTSLAEDLLGLTDPNGGLA
notes: as for B1
B3: NIK (enzyme, UniProt Q99558 1-947, looked up)
chain: MAVMEMACPGAPGSAVGQQKELPKAKEKTPPLGKKQSSVYKLEAVEKSPVFCGKWEILNDVITKGTAKEGSEAGPAAISIIAQAECENSQEFSPTFSERIFIAGSKQYSQSESLDQIPNNVAHATEGKMARVCWKGKRRSKARKKRKKKSSKSLAHAGVALAKPLPRTPEQESCTIPVQEDESPLGAPYVRNTPQFTKPLKEPGLGQLCFKQLGEGLRPALPRSELHKLISPLQCLNHVWKLHHPQDGGPLPLPTHPFPYSRLPHPFPFHPLQPWKPHPLESFLGKLACVDSQKPLPDPHLSKLACVDSPKPLPGPHLEPSCLSRGAHEKFSVEEYLVHALQGSVSSGQAHSLTSLAKTWAARGSRSREPSPKTEDNEGVLLTEKLKPVDYEYREEVHWATHQLRLGRGSFGEVHRMEDKQTGFQCAVKKVRLEVFRAEELMACAGLTSPRIVPLYGAVREGPWVNIFMELLEGGSLGQLVKEQGCLPEDRALYYLGQALEGLEYLHSRRILHGDVKADNVLLSSDGSHAALCDFGHAVCLQPDGLGKSLLTGDYIPGTETHMAPEVVLGRSCDAKVDVWSSCCMMLHMLNGCHPWTQFFRGPLCLKIASEPPPVREIPPSCAPLTAQAIQEGLRKEPIHRVSAAELGGKVNRALQQVGGLKSPWRGEYKEPRHPPPNQANYHQTLHAQPRELSPRAPGPRPAEETTGRAPKLQPPLPPEPPEPNKSPPLTLSKEESGMWEPLPLSSLEPAPARNPSSPERKATVPEQELQQLEIELFLNSLSQPFSLEEQEQILSCLSIDSLSLSDDSEKNPSKASQSSRDTLSSGVHSWSSQAEARSSSWNMVLARGRPTDTPSYFNGVKVQIQSLNGEHLHIREFHRVKVGDIATGISSQIPAAAFSLVTKDGQPVRYDMEVPDSGIDLQCTLAPDGSFAWSWRVKHGQLENRP
notes: as for B1
B4: IKKβ (enzyme, UniProt O14920 1-756, looked up)
chain: MSWSPSLTTQTCGAWEMKERLGTGGFGNVIRWHNQETGEQIAIKQCRQELSPRNRERWCLEIQIMRRLTHPNVVAARDVPEGMQNLAPNDLPLLAMEYCQGGDLRKYLNQFENCCGLREGAILTLLSDIASALRYLHENRIIHRDLKPENIVLQQGEQRLIHKIIDLGYAKELDQGSLCTSFVGTLQYLAPELLEQQKYTVTVDYWSFGTLAFECITGFRPFLPNWQPVQWHSKVRQKSEVDIVVSEDLNGTVKFSSSLPYPNNLNSVLAERLEKWLQLMLMWHPRQRGTDPTYGPNGCFKALDDILNLKLVHILNMVTGTIHTYPVTEDESLQSLKARIQQDTGIPEEDQELLQEAGLALIPDKPATQCISDGKLNEGHTLDMDLVFLFDNSKITYETQISPRPQPESVSCILQEPKRNLAFFQLRKVWGQVWHSIQTLKEDCNRLQQGQRAAMMNLLRNNSCLSKMKNSMASMSQQLKAKLDFFKTSIQIDLEKYSEQTEFGITSDKLLLAWREMEQAVELCGRENEVKLLVERMMALQTDIVDLQRSPMGRKQGGTLDDLEEQARELYRRLREKPRDQRTEGDSQEMVRLLLQAIQSFEKKVRVIYTQLSKTVVCKQKALELLPKVEEVVSLMNEDEKTVVRLQEKRQKELWNLLKIACSKVRGPVSGSPDSMNASRLSQPGQLMSQPSTASNSLPEPAKKSEELVAEAHNLCTLLENAIQDTVREQDQSFTALDWSWLQTEEEEHSCLEQAS
notes: Construct and tag not described for this test
B5: caspase-1 (enzyme, UniProt P29466 1-404, looked up)
chain: MADKVLKEKRKLFIRSMGEGTINGLLDELLQTRVLNKEEMEKVKRENATVMDKTRALIDSVIPKGAQACQICITYICEEDSYLAGTLGLSADQTSGNYLNMQDSQGVLSSFPAPQAVQDNPAMPTSSGSEGNVKLCSLEEAQRIWKQKSAEIYPIMDKSSRTRLALIICNEEFDSIPRRTGAEVDITGMTMLLQNLGYSVDVKKNLTASDMTTELEAFAHRPEHKTSDSTFLVFMSHGIREGICGKKHSEQVPDILQLNAIFNMLNTKNCPSLKDKPKVIIIQACRGDSPGVVWFKDSVGVSGNLSLPTTEEFEDDAIKKAHIEKDFIAFCSSTPDNVSWRHPTMGSVFIGRLIEHMQEYACSCDVEEIFRKVRFSFEQPDGRAQMPTTERVTLTRCFYLFPGH
notes: as for B1
B6: TRAF-1 (other, UniProt Q13077 1-416, looked up)
chain: MASSSGSSPRPAPDENEFPFGCPPTVCQDPKEPRALCCAGCLSENPRNGEDQICPKCRGEDLQSISPGSRLRTQEKAHPEVAEAGIGCPFAGVGCSFKGSPQSVQEHEVTSQTSHLNLLLGFMKQWKARLGCGLESGPMALEQNLSDLQLQAAVEVAGDLEVDCYRAPCSESQEELALQHFMKEKLLAELEGKLRVFENIVAVLNKEVEASHLALATSIHQSQLDRERILSLEQRVVELQQTLAQKDQALGKLEQSLRLMEEASFDGTFLWKITNVTRRCHESACGRTVSLFSPAFYTAKYGYKLCLRLYLNGDGTGKRTHLSLFIVIMRGEYDALLPWPFRNKVTFMLLDQNNREHAIDAFRPDLSSASFQRPQSETNVASGCPLFFPLSKLQSPKHAYVKDDTMFLKCIVETST
notes: as for B1
B7: IKKα (enzyme, UniProt O15111 1-745, looked up)
chain: MERPPGLRPGAGGPWEMRERLGTGGFGNVCLYQHRELDLKIAIKSCRLELSTKNRERWCHEIQIMKKLNHANVVKACDVPEELNILIHDVPLLAMEYCSGGDLRKLLNKPENCCGLKESQILSLLSDIGSGIRYLHENKIIHRDLKPENIVLQDVGGKIIHKIIDLGYAKDVDQGSLCTSFVGTLQYLAPELFENKPYTATVDYWSFGTMVFECIAGYRPFLHHLQPFTWHEKIKKKDPKCIFACEEMSGEVRFSSHLPQPNSLCSLVVEPMENWLQLMLNWDPQQRGGPVDLTLKQPRCFVLMDHILNLKIVHILNMTSAKIISFLLPPDESLHSLQSRIERETGINTGSQELLSETGISLDPRKPASQCVLDGVRGCDSYMVYLFDKSKTVYEGPFASRSLSDCVNYIVQDSKIQLPIIQLRKVWAEAVHYVSGLKEDYSRLFQGQRAAMLSLLRYNANLTKMKNTLISASQQLKAKLEFFHKSIQLDLERYSEQMTYGISSEKMLKAWKEMEEKAIHYAEVGVIGYLEDQIMSLHAEIMELQKSPYGRRQGDLMESLEQRAIDLYKQLKHRPSDHSYSDSTEMVKIIVHTVQSQDRVLKELFGHLSKLLGCKQKIIDLLPKVEVALSNIKEADNTVMFMQGKRQKEIWHLLKIACTQSSARSLVGSSLEGAVTPQTSAWLPPTSAEHDHSLSCVVTPQDGETSAQMIEENLNCLGHLSTIIHEANEEQGNSMMNLDWSWLTE
notes: as for B4
B8: TRAF-2 (other, UniProt Q12933 1-501, looked up)
chain: MAAASVTPPGSLELLQPGFSKTLLGTKLEAKYLCSACRNVLRRPFQAQCGHRYCSFCLASILSSGPQNCAACVHEGIYEEGISILESSSAFPDNAARREVESLPAVCPSDGCTWKGTLKEYESCHEGRCPLMLTECPACKGLVRLGEKERHLEHECPERSLSCRHCRAPCCGADVKAHHEVCPKFPLTCDGCGKKKIPREKFQDHVKTCGKCRVPCRFHAIGCLETVEGEKQQEHEVQWLREHLAMLLSSVLEAKPLLGDQSHAGSELLQRCESLEKKTATFENIVCVLNREVERVAMTAEACSRQHRLDQDKIEALSSKVQQLERSIGLKDLAMADLEQKVLEMEASTYDGVFIWKISDFARKRQEAVAGRIPAIFSPAFYTSRYGYKMCLRIYLNGDGTGRGTHLSLFFVVMKGPNDALLRWPFNQKVTLMLLDQNNREHVIDAFRPDVTSSSFQRPVNDMNIASGCPLFCPVSKMEAKNSYVRDDAIFIKAIVDLTGL
notes: as for B1
B9: RIP (enzyme, UniProt Q13546 1-671, looked up)
chain: MQPDMSLNVIKMKSSDFLESAELDSGGFGKVSLCFHRTQGLMIMKTVYKGPNCIEHNEALLEEAKMMNRLRHSRVVKLLGVIIEEGKYSLVMEYMEKGNLMHVLKAEMSTPLSVKGRIILEIIEGMCYLHGKGVIHKDLKPENILVDNDFHIKIADLGLASFKMWSKLNNEEHNELREVDGTAKKNGGTLYYMAPEHLNDVNAKPTEKSDVYSFAVVLWAIFANKEPYENAICEQQLIMCIKSGNRPDVDDITEYCPREIISLMKLCWEANPEARPTFPGIEEKFRPFYLSQLEESVEEDVKSLKKEYSNENAVVKRMQSLQLDCVAVPSSRSNSATEQPGSLHSSQGLGMGPVEESWFAPSLEHPQEENEPSLQSKLQDEANYHLYGSRMDRQTKQQPRQNVAYNREEERRRRVSHDPFAQQRPYENFQNTEGKGTAYSSAASHGNAVHQPSGLTSQPQVLYQNNGLYSSHGFGTRPLDPGTAGPRVWYRPIPSHMPSLHNIPVPETNYLGNTPTMPFSSLPPTDESIKYTIYNSTGIQIGAYNYMEIGGTSSSLLDSTNTNFKEEPAAKYQAIFDNTTSLTDKHLDPIRENLGKHWKNCARKLGFTQSQIDEIDHDYERDGLKEKVYQMLQKWVMREGIKGATVGKLAQALHQCSRIDLLSSLIYVSQN
notes: as for B4
B10: Ced-4 (other, UniProt P30429 1-549, looked up)
chain: MLCEIECRALSTAHTRLIHDFEPRDALTYLEGKNIFTEDHSELISKMSTRLERIANFLRIYRRQASELGPLIDFFNYNNQSHLADFLEDYIDFAINEPDLLRPVVIAPQFSRQMLDRKLLLGNVPKQMTCYIREYHVDRVIKKLDEMCDLDSFFLFLHGRAGSGKSVIASQALSKSDQLIGINYDSIVWLKDSGTAPKSTFDLFTDILLMLKSEDDLLNFPSVEHVTSVVLKRMICNALIDRPNTLFVFDDVVQEETIRWAQELRLRCLVTTRDVEISNAASQTCEFIEVTSLEIDECYDFLEAYGMPMPVGEKEEDVLNKTIELSSGNPATLMMFFKSCEPKTFEKMAQLNNKLESRGLVGVECITPYSYKSLAMALQRCVEVLSDEDRSALAFAVVMPPGVDIPVKLWSCVIPVDICSNEEEQLDDEVADRLKRLSKRGALLSGKRMPVLTFKIDHIIHMFLKHVVDAQTIANGISILEQRLLEIGNNNVSVPERHIPSHFQKFRRSSASEMYPKTTEETVIRPEDFPKFMQLHQKFYDSLKNFACC
notes: as for B1

The binders below were run against T1, HA-tagged wild-type Nod2 (human, UniProt Q9HC29 1-1040) (assay: co-immunoprecipitation from co-transfected HEK293T cells).
T1 construct: Expressed by transfection in HEK293T cells and tested in cell lysates; also called wt Nod2; pcDNA3-Nod2-HA; not shown: HA tag
T1 sequence (Q9HC29 whole entry R703H): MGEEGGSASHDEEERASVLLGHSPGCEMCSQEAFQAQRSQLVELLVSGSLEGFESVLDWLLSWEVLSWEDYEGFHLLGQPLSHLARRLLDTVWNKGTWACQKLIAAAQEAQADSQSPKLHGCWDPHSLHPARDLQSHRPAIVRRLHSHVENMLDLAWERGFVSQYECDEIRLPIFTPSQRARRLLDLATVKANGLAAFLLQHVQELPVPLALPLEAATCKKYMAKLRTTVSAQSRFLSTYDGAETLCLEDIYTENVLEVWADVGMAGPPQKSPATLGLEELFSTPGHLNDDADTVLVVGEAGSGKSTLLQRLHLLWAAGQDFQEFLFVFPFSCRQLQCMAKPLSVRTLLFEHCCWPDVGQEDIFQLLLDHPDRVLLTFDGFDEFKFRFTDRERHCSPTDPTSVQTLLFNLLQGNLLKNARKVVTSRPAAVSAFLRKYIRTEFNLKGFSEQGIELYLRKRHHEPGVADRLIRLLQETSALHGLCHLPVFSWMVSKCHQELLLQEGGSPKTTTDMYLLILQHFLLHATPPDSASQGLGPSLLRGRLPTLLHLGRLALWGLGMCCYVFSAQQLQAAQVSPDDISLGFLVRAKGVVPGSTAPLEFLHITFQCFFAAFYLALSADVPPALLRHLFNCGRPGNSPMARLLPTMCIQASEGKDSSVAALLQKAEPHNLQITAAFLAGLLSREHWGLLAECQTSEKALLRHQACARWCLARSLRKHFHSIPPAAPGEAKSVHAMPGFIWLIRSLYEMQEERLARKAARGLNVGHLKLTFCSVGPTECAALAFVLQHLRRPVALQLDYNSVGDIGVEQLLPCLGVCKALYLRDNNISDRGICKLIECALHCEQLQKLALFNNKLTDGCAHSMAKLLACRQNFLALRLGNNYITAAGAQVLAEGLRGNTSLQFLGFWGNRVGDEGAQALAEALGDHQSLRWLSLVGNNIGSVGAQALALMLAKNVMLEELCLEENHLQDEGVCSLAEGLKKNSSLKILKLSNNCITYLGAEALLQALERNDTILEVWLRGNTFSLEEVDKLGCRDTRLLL
From the text: The CARD motif functions as an effector domain that mediates specific homophilic interaction with downstream CARD-containing molecules (Hofmann et al., Trends Biochem. Sci. 22: 155-156 [1997]).

| binding result | Binder |
| --- | --- |
| no binding | B1 |
| no binding | B2 |
| no binding | B3 |
| no binding | B4 |
| no binding | B5 |
| no binding | B6 |
| no binding | B7 |
| no binding | B8 |
| no binding | B9 |
| no binding | B10 |
